Assay: soluble on expression in E. coli; label from the status in PepcDB or PDB records

Sequence	soluble on expression in E. coli
MFVLPVRFERSPRLHPMLSESPHPVGTRVVVQGKRGPEIATVRGEASEPERQARYGAVLRAATPEDLATWEDLHRRAEDLKWLLRARARERGLPVKLVAVEFTLDESLVTISYSADERIELSSLIGELRAHTRARVNFAAIGPREQAQMLGTLGACGRENCSSTHLQDFAPVSIRMARDQQLPLNPEKLSGPCGRLLCCLQYEHEQYLDLLRDLPRKNAKMCHEGSGACGKVTKLHPLAGTVDLQTDQGLLQDVPASELRRLPEQAAARSPRREPREAPASTDLEHHHHHH	soluble
MFYPDPFDVIIIGGGHAGTEAAMAAARMGQQTLLLTHNIDTLGQMSCNPAIGGIGKGHLVKEVDALGGLMAKAIDQAGIQFRILNASKGPAVRATRAQADRVRYRQAVRTALENQPNLMIFQQAVEDLIVENDRVVGAVTQMGLKFRAKAVVLTVGTFLDGKIHIGLDNYSGGRAGDPPSIPLSRRLRELPLRVGRLKTGTPPRIDARTIDFSVLAQQHGDNPMPVFSFMGNASLHPQQVPCYITHTNEKTHDVIRSNLDRSPMYAGVIEGVGPRYCPSIEDKVMRFADRNQHQIFLEPEGLTSNEIYPNGISTSLPFDVQMQIVRSMQGMENAKIVRPGYAIEYDFFDPRDLKPTLESKFIQGLFFAGQINGTTGYEEAAAQGLLAGLNAARLSADKEGWAPARSQAYLGVLVDDLCTLGTKEPYRMFTSRAEYRLMLREDNADLRLTEIGRELGLVDDERWARFNEKLENIERERQRLKSTWVTPSAEAAAEVNAHLTAPLSREASGEDLLRRPEMTYEKLTTLTPFAPALTDEQAAEQVEIQVKYEGYIARQQDEIEKQLRNENTLLPATLDYRQISGLSNEVIAKLNDHKPASIGQASRISGVTPAAISILLVWLKKQGMLRRSA	not soluble
MGACPRFERASARGMIARNPIKQDPAMRNTQDDHSRFLSLVLRHQPETIGLQLDDQGWADIGELLARLAAKGRNLGRKQLEKIVLDNDKQRFAISEDGLRIRANQGHSIKIDLGLAACEPPDRLYHGTASRFLDAILAEGLRPGQRQHVHLSADGQTARKVGARHGKPVVLEIDARAMRQAGLAFYRSDNGVWLIDGVPPVFIRQTEARLEHHHHHH	soluble
MGAGEKGIVEKEGYQLDTRRQAQAAYPRIKVLVIHYTADDFDSSLATLTDKQVSSHYLVPAVPPRYNGKPRIWQLVPEQELAWHAGISAWRGATRLNDTSIGIELENRGWQKSAGVKYFAPFEPAQIQALIPLAKDIIARYHIKPENVVAHADIAPQRKDDPGPLFPWQQLAQQGIGAWPDAQRVNFYLAGRAPHTPVDTASLLELLARYGYDVKPDMTPREQRRVIMAFQMHFRPTLYNGEADAETQAIAEALLEKYGQD	soluble
MGAMESLRWMEARLPEILKDLEAFVRRESPSGDLEGLEAAARFLEEAFGPLEGRLSRKDTPAGPVLLLKREGEGAPVLLLCHYDTVHPKGSFPEPFRLEREKAIGPGVYDMKGGIIALLYALRYAEATGRRLPALEVLFTPDEEVGSPESRPLIEAAAKKARAVLVLEPPTAEGHLKVARKGVGLYRLRAIGKAAHQGVEPEKGVNAILELAHQVLKVAALEDREKGTTLGPNRIRGGTATNVVAEEAEVEIDLRAWTLEEVQRVEEGLKALKPVLPGARLVLSGGLNRPPMEPTEASLALFAKARAIGEALGLRLEPGRVGGGSDGNFTAALGVPTLDGLGLFGGNAHQKTEYVVVPEIPRRTALLAELLAAL	soluble
MGDAPSPEEKLHLITRNLQEVLGEEKLKEILKERELKIYWGTATTGKPHVAYFVPMSKIADFLKAGCEVTILFADLHAYLDNMKAPWELLELRVSYYENVIKAMLESIGVPLEKLKFIKGTDYQLSKEYTLDVYRLSSVVTQHDSKKAGAEVVKQVEHPLLSGLLYPGLQALDEEYLKVDAQFGGIDQRKIFTFAEKYLPALGYSKRVHLMNPMVPGLTGSKMSSSEEESKIDLLDRKEDVKKKLKKAFCEPGNVENNGVLSFIKHVLFPLKSEFVILRDEKWGGNKTYTAYVDLEKDFAAEVVHPGDLKNSVEVALNKLLDPIREKFNTPALKKLASAAYPDPSKQKPMAKGPAKNSEPEEVILEHHHHHH	soluble
MGDEDDDESCAVELRITEANLTGHEEKVSVENFELLKVLGTGAYGKVFLVRKAGGHDAGKLYAMKVLRKAALVQRAKTQEHTRTERSVLELVRQAPFLVTLHYAFQTDAKLHLILDYVSGGEMFTHLYQRQYFKEAEVRVYGGEIVLALEHLHKLGIIYRDLKLENVLLDSEGHIVLTDFGLSKEFLTEEKERTFSFCGTIEYMAPEIIRSKTGHGKAVDWWSLGILLFELLTGASPFTLEGERNTQAEVSRRILKCSPPFPPRIGPVAQDLLQRLLCKDPKKRLGAGPQGAQEVRNHPFFQGLDWVALAARKIPAPFRPQIRSELDVGNFAEEFTRLEPVYSPPGSPPPGDPRIFQGYSFVAPSILFDHNNAVMTDGLEAPGAGDRPGRAAVARSAMMQYELDLREPALGQGSFSVCRRCRQRQSGQEFAVKILSRRLEANTQREVAALRLCQSHPNVVNLHEVHHDQPHTYLVLELLRGGELLEHIRKKRHFSESEASQILRSLVSAVSFMHEEAGVVHRDLKPENILYADDTPGAPVKIIDFGFARLRPQSPGVPMQTPCFTLQYAAPELLAQQGYDESCDLWSLGVILYMMLSGQVPFQGASGQGGQSQAAEIMCKIREGRFSLDGEAWQGVSEEAKELVRGLLTVDPAKRLKLEGLRGSSWLQDGSARSSPPLRTPDVLESSGPAVRSGLNATFMAFNRGKREGFFLKSVENAPLAKRRKQKLRSATASRRGSPAPANPGRAPVAAKGAPRRANGPLPPS	soluble
MGDKGTRVFKKASPNGKLTVYLGKRDFVDHIDLVEPVDGVVLVDPEYLKERRVYVTLTCAFRYGREDLDVLGLTFRKDLFVANVQSFPPAPEDKKPLTRLQERLIKKLGEHAYPFTFEIPPNLPCSVTLQPGPEDTGKACGVDYEVKAFCAENLEEKIHKRNSVRLVIRKVQYAPERPGPQPTAETTRQFLMSDKPLHLEASLDKEIYYHGEPISVNVHVTNNTNKTVKKIKISVRQYADICLFNTAQYKCPVAMEEADDTVAPSSTFCKVYTLTPFLANNREKRGLALDGKLKHEDTNLASSTLLREGANREILGIIVSYKVKVKLVVSRGGLLGDLASSDVAVELPFTLMHPKPKEEPPHREVPEHETPVDTNLIELDTNDDDIVFEDFARQRLKGMKDDKEEEEDGTGSPRLNDR	soluble
MGDLIAITYHSNALQSERQMYVWTPPGYTGMGEPLPVLYFYHGFGDTGRSAIDQGRIPQIMDNLLAEGKIKPMLVVIPDTETDAKGIIPEDFVPQERRKVFYPLNAKAADRELMNDIIPLISKRFSVRKDADGRALAGLSQGGYQALVSGMNHLESFGWLATFSGVTTTTVPDEGVAARLNDPAAINQQLRNFTVVVGDKDVVTGKDIAGLKTELEQKKIKFDYQEYPGLNHEMDVWRPAYAAFVQKFKIRHLEHHHHHH	not soluble
MGDNENGDNLNNHQDSGSGSHHDAAPQQQQNNMSHQQQPQQQQHNEHNKQQQQQRDDVCRDFLKNICNRGSRCKFYHPSEAPPISDHDYNFCIDYQNRGCQRDNCRFVHAPRDEVERYKTTRELTLILARAIAAVGHGDTIGGIPICKEFQTGRCARGVNRCRYWHVNVDLERDRRNRGLPPSNDFGPGGGGGGMGGGGGSGGSGGGSGRFPPPPPPYGGGGRRRPYDDYDSDPIKRGRYGSDDRLMELEKRNAELSKEVDSLRRELQREHDRYEDLYALFRQQSGGAPAPPKAAAAASAVNDYYGTWGQKAPGW	soluble
MGDSILSQAEIDALLNGDSDTKDEPTPGIASDSDIRPYDPNTQRRVVRERLQALEIINERFARQFRMGLFNLLRRSPDITVGAIRIQPYHEFARNLPVPTNLNLIHLKPLRGTGLVVFSPSLVFIAVDNLFGGDGRFPTKVEGREFTHTEQRVINRMLKLALEGYSDAWKAINPLEVEYVRSEMQVKFTNITTSPNDIVVNTPFHVEIGNLTGEFNICLPFSMIEPLRELLVNPPLENSRHEDQNWRDNLVRQVQHSELELVANFADIPLRLSQILKLKPGDVLPIEKPDRIIAHVDGVPVLTSQYGTVNGQYALRVEHLINPILNSLNEEQPK	not soluble
MGDSVLSAIQQTITQRKSANPSESYVAQLLHKGEDKILKKVIEEAGEVLMASKDKNPSHLVYEVADLWFHTMILLTHHDLKAEDVLDELARRQGLSGLVEKAARTES	not soluble
MGEKLELRLKSPVGAEPAVYPWPLPVYDKHHDAAHEIIETIRWVCEEIPDLKLAMENYVLIDYDTKSFESMQRLCDKYNRAIDSIHQLWKGTTQPMKLNTRPSTGLLRHILQQVYNHSVTDPEKLNNYEPFSPEVYGETSFDLVAQMIDEIKMTDDDLFVDLGSGVGQVVLQVAAATNCKHHYGVEKADIPAKYAETMDREFRKWMKWYGKKHAEYTLERGDFLSEEWRERIANTSVIFVNNFAFGPEVDHQLKERFANMKEGGRIVSSKPFAPLNFRINSRNLSDIGTIMRVVELSPLKGSVSWTGKPVSYYLHTIDRTILENYFSSLKNPKLREEQEAARRRQQRESKSNAATPTKGPEGKVAGPADAPMDSGAEEEKAGAATVKKPSPSKARKKKLNKKGRKMAGRKRGRPKK	soluble
MGFGDIQTQPGTYSMHHMTTSTRITSRFLKNKTTNMKRLGVDPPCGVPEPKEDVLLAVSCDAFAFGQDDTNNDRITVEWTNTPDGAAKQFRREWF	not soluble
MGFLKILRKQRAREREMRILILGLDNAGKTTLMKKFLDEPTDTIEPTLGFDIKTVHFKDFQLNLWDVGGQKSLRSYWKNYFESTDALIWVVDSSDRERLLQCSEELKKLLGEERLAGASLLVLANKSDLPGAIDVNSIAQVLDLHSIKSHHWKIFSCCALSGDRLVQAMTWLCDDVGSRLFILD	not soluble
MGFQLRGTGTQELSIKELDLSARDAYGTTIKMLKQQLESSGVRVHAGAPYKLVLLSEENSQRTLSYTGGGNSAEYEIGTTLRYEILTHDNLHLLDDKLEVQKVFLHDGNNITGSDQESSETRKEMRRDLIQRMLIRLQLLTPEQLAQLQATAEAKAKAEADALEAARKAEAETPQQSPMELPNQLEHHHHHH	not soluble
MGFSFLLATVQKERMKRRSRTRSRSRRRAKQDPKTWVARYIPQDLLIEILTRLPPKSVMRFKCVSKFWSSLLSSRYFCNRFLIVPSQPQPSLYMCLLDRYNYSKSLILSSAPSTSPYSFVFDQDLTIRKMGGFFLRILRGFIFFTRNLKARIYNPTTRQLVILPTIKESDIIAGPPYNILYFICHDPVNDRYKLLCTVSYASDNDLQNLKSELWIFVLEAGGSWKRVANEFPHHVPSHLDLNMNGVLYFLAWTDPHTCMLVSFDVRSEEFNTMQVPRNAGDTLPRQEKGVVNRVW	not soluble
MGGGERYNIPAPQSRNVSKNQQQLNRQKTKEQNSQMKIVHKKKERGHGYNSSAAAWQAMQNGGKNKNFPNNQSWNSSLSGPRLLFKSQANQNYAGAKFSEPPSPSVLPKPPSHWVPVSFNPSDKEIMTFQLKTLLKVQV	not soluble
